One test deals with Human CD47 (human) (UniProt Q08722). The experiment in a line: SPR. (In general: SPR reads the build-up and loss of mass on a sensor chip optically.)
A further test concerns the target Mouse CD47 (mouse) (UniProt Q61735). The experiment in a line: SPR.

Mouse CD47 (mouse), sequence (Q61735 19-140 limits assumed): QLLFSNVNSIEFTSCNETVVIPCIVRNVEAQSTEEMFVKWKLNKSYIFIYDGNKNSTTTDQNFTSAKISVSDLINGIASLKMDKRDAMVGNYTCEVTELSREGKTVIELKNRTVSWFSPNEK
Human CD47 (human), sequence (Q08722 19-139 limits assumed): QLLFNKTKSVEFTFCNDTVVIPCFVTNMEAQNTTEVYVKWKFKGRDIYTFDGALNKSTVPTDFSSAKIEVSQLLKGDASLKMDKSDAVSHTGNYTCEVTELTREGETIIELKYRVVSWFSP

The term Kd denotes the free concentration of one partner at which half of the binding sites on the other are occupied at equilibrium, for simple one-to-one binding. A high value points to lower affinity. As usually defined, the koff is the first-order rate constant of dissociation. The term kon denotes a measure of how fast the partners come together. In the test with Human CD47 (human), monomeric SIRPα (mSIRPα) (receptor) showed a Kd of 0.0054 nM, an off-rate constant (koff) of 3.7e-05 s⁻¹ and a kon of 7e+06 M⁻¹ s⁻¹. Besides, in the test with Mouse CD47 (mouse), the Kd was determined as 6.2 nM, the koff was 0.011 s⁻¹ and the kon amounted to 1.8e+06 M⁻¹ s⁻¹.

For the origin of these results see patent US20190216947A1.
